# Assay results taken from patent US20250011363A1, “OPTIMIZED SHORTENED PEPTIDE THAT BINDS TO ACETYLCHOLINE RECEPTOR, AND USE THEREOF” (SKINMED CO., LTD., priority 2021, published 2025).
# Target: acetylcholine receptor
# Assay: SPR, AchR immobilized on CM5 chip, peptide 10 uM
row,Binder,Binding affinity (RU)
1,RRDCAK [6mer-1-763],12 RU
2,RKDNKR [6mer-1-740],26 RU
3,RRFHWR [6mer-1-742],14 RU
4,RKCTIR [6mer-1-766],15 RU
5,RKETFR [6mer-1-761],33 RU
6,RRNPFK [6mer-1-764],24 RU
7,KKQYYR [6mer-1-398],137 RU
8,KKATDK [6mer-1-736],15 RU
9,KKKMFK [6mer-1-733],21 RU
10,RKYHHR [6mer-1-738],25 RU
11,RKCCEK [6mer-1-739],32 RU
12,KRWQTK [6mer-1-400],123 RU
13,KRLILR [6mer-1-397],125 RU
14,RKDNEK [6mer-1-757],26 RU
15,KKTMDR [6mer-1-747],24 RU
16,KKYHHR [6mer-1-758],33 RU
17,RKHNGR [6mer-1-748],24 RU
18,KKTMVR [6mer-1-743],14 RU
19,RRSYQK [6mer-1-386],127 RU
20,RRLYCR [6mer-1-401],127 RU
21,RRTNFK [6mer-1-751],27 RU
22,KKVRRR [6mer-1-394],149 RU
23,RKEAGR [6mer-1-741],24 RU
24,RKLFCK [6mer-1-389],125 RU
25,RRANMR [6mer-1-755],25 RU

row,Binder,Binding affinity (RU)
1,KKRQTK [6mer-1-395],125 RU
2,RKMTWR [6mer-1-759],23 RU
3,KRENIK [6mer-1-750],33 RU
4,RKHEIK [6mer-1-744],31 RU
5,RKAKMK [6mer-1-756],33 RU
6,RRTHER [6mer-1-734],21 RU
7,KKGRLR [6mer-1-387],148 RU
8,KRQIQK [6mer-1-396],148 RU
9,RKDKER [6mer-1-735],19 RU
10,KRWILR [6mer-1-399],125 RU
11,RRQRCK [6mer-1-391],131 RU
12,RKMSVK [6mer-1-746],24 RU
13,RKKKMK [6mer-1-754],24 RU
14,KRMMVR [6mer-1-760],21 RU
15,KRPTEK [6mer-1-752],16 RU
16,RRLLQR [6mer-1-388],142 RU
17,KRASPK [6mer-1-765],25 RU
18,KKTMEK [6mer-1-745],11 RU
19,KRLYYK [6mer-1-393],148 RU
20,RKLQQR [6mer-1-390],121 RU
21,RRVQTR [6mer-1-392],135 RU
22,RRKNAR [6mer-1-737],27 RU
23,RKPHWR [6mer-1-749],33 RU
24,KKTKAR [6mer-1-762],13 RU
25,KKDTHK [6mer-1-753],12 RU

# Next, values leading:
row,Binding affinity (RU),Binder
1,32 RU,RKFEWK [6mer-1-768]
2,21 RU,KKEMER [6mer-1-774]
3,12 RU,KKPNPK [6mer-1-790]
4,19 RU,KRMMPK [6mer-1-789]
5,14 RU,RKMPVK [6mer-1-769]
6,16 RU,RRHNHR [6mer-1-777]
7,24 RU,KRKCWR [6mer-1-780]
8,22 RU,RKIPKK [6mer-1-788]
9,33 RU,KKFTPK [6mer-1-784]
10,12 RU,KRNCAK [6mer-1-772]
11,19 RU,KKTCER [6mer-1-785]
12,30 RU,KRKDKK [6mer-1-792]
13,12 RU,KKYPWR [6mer-1-775]
14,26 RU,KRIKEK [6mer-1-786]
15,31 RU,KKTPNR [6mer-1-793]
16,13 RU,KKTSIK [6mer-1-776]
17,13 RU,RKPDDK [6mer-1-791]
18,11 RU,RKYEPK [6mer-1-794]
19,17 RU,KKMDIK [6mer-1-771]
20,29 RU,KRTEIR [6mer-1-773]
21,30 RU,RRPDAR [6mer-1-779]
22,29 RU,RKTNAR [6mer-1-770]
23,29 RU,KKNEFK [6mer-1-783]
24,18 RU,KRTPDK [6mer-1-767]
25,16 RU,KKESIK [6mer-1-787]
26,16 RU,RRHWDK [6mer-1-781]
27,30 RU,KKNAWK [6mer-1-782]
28,28 RU,RRDDFR [6mer-1-778]
